Measured values: PMC4721543

Key:
[1] = target: human VEGF-A165 (human); assay: MST; 10 nM NT-647-labelled HGF or VEGF165 with serial dilutions of the unlabelled partner; 22°C, PBS plus 1% BSA; Monolith NT.115
[2] = target: human VEGF-A165 (human); assay: fluorescence correlation spectroscopy; 1-5 nM ATTO 647N-labelled growth factor with 0.1 nM to 20 μM unlabelled CD44 ectodomain; at least 3 h at room temperature; PBS with 0.05% Tween-20; 20°C; diffusion times fitted with a 1:1 binding model
[3] = target: human VEGF-A165 (human); assay: fluorescence correlation spectroscopy; as the FCS series, but VEGF165 labelled with NT 647 (Table 1)

## rat CD44v6 ectodomain, hexahistidine-tagged (from UniProt P26051 22-410) (domain or fragment)
[1]
  Kd: 0.051 µM
[2]
  Kd: 0.065 µM
[3]
  Kd: 0.2 µM
